Test results published in patent publication US20170174769A1 (Regeneron, published 2017).

T1: extracellular domain of human KLB expressed with C-terminal HA and hexahistidine tags (human, UniProt Q86Z14 1-996)
T1 construct: also called hKLB-HA-6His; hKLB-HA-6his
T1 sequence: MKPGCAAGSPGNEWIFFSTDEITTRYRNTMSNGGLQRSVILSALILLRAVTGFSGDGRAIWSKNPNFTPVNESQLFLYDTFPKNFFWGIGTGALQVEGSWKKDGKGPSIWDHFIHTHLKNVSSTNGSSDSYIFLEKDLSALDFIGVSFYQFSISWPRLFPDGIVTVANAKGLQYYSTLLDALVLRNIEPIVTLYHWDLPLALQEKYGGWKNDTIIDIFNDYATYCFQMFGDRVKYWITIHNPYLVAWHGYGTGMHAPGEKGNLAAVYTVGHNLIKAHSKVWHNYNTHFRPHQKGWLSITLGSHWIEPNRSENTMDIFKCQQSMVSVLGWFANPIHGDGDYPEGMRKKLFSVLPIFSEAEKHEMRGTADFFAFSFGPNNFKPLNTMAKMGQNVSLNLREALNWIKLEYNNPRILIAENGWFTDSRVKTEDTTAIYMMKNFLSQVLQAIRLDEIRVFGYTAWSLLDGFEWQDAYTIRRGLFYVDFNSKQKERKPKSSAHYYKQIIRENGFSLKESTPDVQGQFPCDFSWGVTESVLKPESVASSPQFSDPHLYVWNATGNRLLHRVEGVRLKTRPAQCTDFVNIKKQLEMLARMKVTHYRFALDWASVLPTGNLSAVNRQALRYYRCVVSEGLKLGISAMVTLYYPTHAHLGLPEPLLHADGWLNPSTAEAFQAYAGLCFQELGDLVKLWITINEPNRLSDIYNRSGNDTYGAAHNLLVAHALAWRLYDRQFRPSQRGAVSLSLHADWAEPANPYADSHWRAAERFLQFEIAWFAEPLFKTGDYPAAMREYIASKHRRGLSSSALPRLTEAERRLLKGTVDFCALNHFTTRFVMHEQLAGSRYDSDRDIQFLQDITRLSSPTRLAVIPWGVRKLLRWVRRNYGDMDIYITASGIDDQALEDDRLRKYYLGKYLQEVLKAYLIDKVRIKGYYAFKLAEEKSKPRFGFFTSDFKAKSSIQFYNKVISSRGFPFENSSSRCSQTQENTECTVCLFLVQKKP

T2: extracellular domain of human FGFR1c expressed with C-terminal V5 and hexahistidine tags (human, UniProt P11362 22-376)
T2 construct: also called hFGFR1c-V5-6His
T2 sequence: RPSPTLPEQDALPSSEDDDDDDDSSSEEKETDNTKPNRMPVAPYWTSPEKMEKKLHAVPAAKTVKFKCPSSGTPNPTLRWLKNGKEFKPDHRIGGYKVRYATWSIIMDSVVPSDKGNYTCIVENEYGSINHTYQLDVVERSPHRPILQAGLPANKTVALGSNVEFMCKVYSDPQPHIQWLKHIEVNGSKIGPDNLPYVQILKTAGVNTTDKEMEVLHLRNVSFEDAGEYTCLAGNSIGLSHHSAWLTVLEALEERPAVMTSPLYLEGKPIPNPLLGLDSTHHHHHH


Key:
[1] = biological target: T3, human KLB and human FGFR1c co-expressed on HEK293/hKLB/hFGFR1c/SRE-luc cells (human, UniProt Q86Z14 1-1044; P11362 22-822); experiment: cell-based or functional assay
[2] = biological target: T1, extracellular domain of human KLB …; experiment: SPR, mAb captured, 25 C
Method: (§1) Equilibrium dissociation constants (KD values) for human KLB or human FGFR1c binding to purified anti-KLB/FGFR1c monoclonal antibodies were determined using a real-time surface plasmon resonance biosensor using a Biacore T-200 or 4000 instrument. The Biacore sensor surface was derivatized by amine coupling with either a polyclonal rabbit anti-mouse antibody (GE, # BR-1008-38) or with a monoclonal mouse anti-human Fc antibody (GE, # BR-1008-39) to capture anti-KLB/FGFR1c monoclonal antibodies expressed with either a mouse Fc or a human Fc, respectively. All Biacore binding studies were performed in a buffer composed of 0.01M HEPES pH 7.4, 0.15M NaCl, 3mM EDTA, 0.05% v/v Surfactant P20 (HBST running buffer). […] Association of hKLB-HA-6His or hFGFR1c-V5-6His to the captured monoclonal antibody was monitored for 3.5 to 4 minutes and the dissociation of hKLB-HA-6His or hFGFR1c-V5-6His in HBST running buffer was monitored for 8-12 minutes. All the binding kinetics experiments were performed at 25° C. or 37° C. Kinetic association (kₐ) and dissociation (kd) rate constants were determined by fitting the real-time sensorgrams to a 1:1 binding model using Scrubber 2.0c curve fitting software. Binding dissociation equilibrium constants (KD) and dissociative half-lives (t½) were calculated from the kinetic rate constants as: […]

[3] = biological target: T2, extracellular domain of human FGFR1c …; experiment: SPR, mAb captured, 25 C
Method: as §1

[4] = biological target: T1, extracellular domain of human KLB …; experiment: SPR, mAb captured, 37 C
Method: as §1

[5] = biological target: T2, extracellular domain of human FGFR1c …; experiment: SPR, mAb captured, 37 C
Method: as §1

[6] = biological target: T3, human KLB and human FGFR1c co-expressed …; experiment: cell-based or functional assay; remark: listed apart in the source
[7] = biological target: M. fascicularis KLB and human FGFR1c co-expressed on HEK293/MfKLB/hFGFR1c/SRE-Luc cells (M. fascicularis; human, UniProt A0A2K5WB58 1-1044); experiment: cell-based or functional assay
Sequence of M. fascicularis KLB and human FGFR1c co-expressed on HEK293/MfKLB/hFGFR1c/SRE-Luc cells (chain, as listed by the source, chain 1 of 2): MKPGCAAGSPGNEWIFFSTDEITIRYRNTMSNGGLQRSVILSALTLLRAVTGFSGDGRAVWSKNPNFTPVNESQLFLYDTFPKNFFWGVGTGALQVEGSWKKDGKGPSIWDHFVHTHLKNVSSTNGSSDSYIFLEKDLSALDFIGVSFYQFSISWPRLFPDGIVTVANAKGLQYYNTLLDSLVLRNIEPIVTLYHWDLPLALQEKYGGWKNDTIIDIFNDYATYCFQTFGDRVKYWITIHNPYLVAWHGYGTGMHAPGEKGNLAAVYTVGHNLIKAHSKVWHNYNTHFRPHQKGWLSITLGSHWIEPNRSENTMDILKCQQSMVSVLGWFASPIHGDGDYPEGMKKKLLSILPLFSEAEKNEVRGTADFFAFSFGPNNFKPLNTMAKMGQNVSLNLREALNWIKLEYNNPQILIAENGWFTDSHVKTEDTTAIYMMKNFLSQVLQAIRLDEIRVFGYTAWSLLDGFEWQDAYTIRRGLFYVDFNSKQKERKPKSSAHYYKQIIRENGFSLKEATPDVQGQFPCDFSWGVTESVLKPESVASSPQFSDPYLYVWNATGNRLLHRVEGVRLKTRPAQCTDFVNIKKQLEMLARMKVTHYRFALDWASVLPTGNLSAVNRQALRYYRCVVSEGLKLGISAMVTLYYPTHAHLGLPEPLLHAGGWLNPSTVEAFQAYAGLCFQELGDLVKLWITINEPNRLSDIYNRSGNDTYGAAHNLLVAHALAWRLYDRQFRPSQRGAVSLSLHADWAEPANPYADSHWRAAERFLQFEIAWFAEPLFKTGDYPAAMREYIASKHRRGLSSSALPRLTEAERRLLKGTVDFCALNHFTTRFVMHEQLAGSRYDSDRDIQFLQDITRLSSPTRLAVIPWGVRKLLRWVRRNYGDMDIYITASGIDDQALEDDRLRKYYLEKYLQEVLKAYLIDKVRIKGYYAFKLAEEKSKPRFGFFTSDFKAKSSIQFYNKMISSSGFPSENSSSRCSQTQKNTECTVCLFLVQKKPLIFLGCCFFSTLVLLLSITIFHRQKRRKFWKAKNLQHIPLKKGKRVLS
Sequence of M. fascicularis KLB and human FGFR1c co-expressed on HEK293/MfKLB/hFGFR1c/SRE-Luc cells (chain, as listed by the source, chain 2 of 2): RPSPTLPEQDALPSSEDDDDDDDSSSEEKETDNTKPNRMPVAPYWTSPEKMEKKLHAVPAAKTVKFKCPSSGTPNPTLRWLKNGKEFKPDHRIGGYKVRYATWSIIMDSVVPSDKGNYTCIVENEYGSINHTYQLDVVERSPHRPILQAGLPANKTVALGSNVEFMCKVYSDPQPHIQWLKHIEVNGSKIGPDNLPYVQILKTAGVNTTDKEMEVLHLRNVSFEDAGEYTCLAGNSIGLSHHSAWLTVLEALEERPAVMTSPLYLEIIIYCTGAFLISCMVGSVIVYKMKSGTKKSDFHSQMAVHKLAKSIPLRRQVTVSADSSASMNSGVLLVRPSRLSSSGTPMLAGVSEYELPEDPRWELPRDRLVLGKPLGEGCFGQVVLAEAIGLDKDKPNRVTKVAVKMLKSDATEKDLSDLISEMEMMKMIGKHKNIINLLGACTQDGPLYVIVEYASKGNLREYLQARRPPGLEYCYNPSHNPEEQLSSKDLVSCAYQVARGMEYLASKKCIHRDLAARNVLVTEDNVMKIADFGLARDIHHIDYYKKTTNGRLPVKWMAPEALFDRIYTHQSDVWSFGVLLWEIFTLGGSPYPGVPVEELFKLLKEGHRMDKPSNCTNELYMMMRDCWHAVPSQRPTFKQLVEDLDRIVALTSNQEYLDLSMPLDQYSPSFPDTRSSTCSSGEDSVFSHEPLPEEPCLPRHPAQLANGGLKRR

| IC50, inhibition of 1 nM hFGF21 [1] [nM] | Maximum Inhibition (%) of 1 nM hFGF21 [1] [%] | 20 nM hKLB-HA-6His Bind (RU) [2] [RU] | 180 nM hFGFR1c-V5-6His Bind (RU) [3] [RU] | 20 nM hKLB-HA-6His Bind (RU) [4] [RU] | 180 nM hFGFR1c-V5-6His Bind (RU) [5] [RU] | EC50, SRE-luc activation without ligand [6] [nM] | Maximum Activation (%) without ligand [6] [%] | IC50, inhibition of 10 nM mfFGF21 [7] [nM] | Maximum Inhibition (%) of 10 nM mfFGF21 [7] [%] | Binder | other results |
| --- | --- | --- | --- | --- | --- | --- | --- | --- | --- | --- | --- |
| 0.04 | 20 | 0.5 | 2.4 | -0.1 | 2.8 |  |  |  |  | H1H8899P (antibody, V domains shown) VH: EVQLVESGGGLVQPGGSLRLSCAASGFTFSSHWMSWVRQAPGKGLEWVANIKQDGSEKYYVDSVKGRFTISRDNAKNSLYLQISSLRAEDTAVYYCASNWNFLFDFWGQGTLVTVSS VL: not shown | binding result [3]: no binding (tested: 180 nM) |
|  |  | -0.2 | 5.8 | -0.7 | 2.3 | 0.75 | 4 | 0.11 | 15 | H2aM8832N (antibody, V domains shown, mouse IgG2 Fc (H2aM prefix)) VH: QVQLVESGGGVVQPGRSLRLSCAASGFTFSRYGMHWVRQAPGKGLEWVAVIWYDGTNKYYEDSLKGRFTISRDNSKNTLYLQMNSLRAEDSAVYYCARDQGKYIDYWGQGTLVTVSS VL: AIQMTQSPSSLSASVGDRVTITCRTSQDIRNDLGWYQQKPGKVPNLLIYAASTLQSGVPSRFSGSGSGTDFTLTISSLQPEDFATYYCLQDYNYPFTFGPGTKVDIK |  |
| 0.12 | 50 | 64.1 | -1.3 | 93.6 | 0.5 | 0.2 | 1 | 0.22 | 18 | H2aM8092N (antibody, V domains shown, mouse IgG2 Fc (H2aM prefix); also called H2M8092N) VH: QVQLQESGPGLVKPSETLSLTCTVSGGSISSYYWSWIRQPPGKGLDWIGHIYYSGTTYYNPSLKSRVSISLDTSKNQFSLKLSSVTAADTAVYYCARHLRGYSSGREFDYWGQGTLVTVSS VL: DIQMTQSPSSLSASVGGRVSLTCRASQSIFSYLNWYQQKPGKAPKLLIYAASNLQSGVPSRFSGSGSGTDFTLTISSLQPEDFATYSCQQSYNIPYTFGQGTKLEIK | Kd [2]: 0.383 nM; koff [2]: 5.56e-05 s⁻¹; kon [2]: 145000 M⁻¹ s⁻¹; t1/2 [2]: 3.46 h; Kd [4]: 0.412 nM; koff [4]: 8e-05 s⁻¹; kon [4]: 194000 M⁻¹ s⁻¹; t1/2 [4]: 2.41 h |
| 15 | 62 | 2.7 | -0.9 | 3.9 | -1.4 | 23 | 1 |  |  | H2aM8098N (antibody, V domains shown, mouse IgG2 Fc (H2aM prefix)) VH: QLQLQESGPGLVKPSETLSLTCTVSGGSISSSNYYWDWIRQTPEKGLEWIGSIHYSGTSYYNPSLKSRVTISVDTSKNQFSLKLRSVTAADAAVYYCARQTSVYWYFDIWGHGTLVTVST VL: EIVLTQSPGTLSLSPGEGATLSCRASQSVRNNYLAWYQQKPGQAPRLLIYGASSRAIGIPDRFSGSGSGTDFTLTISRLEPKDFVVYYCQQYGGSLFTFGPGTKVDIK |  |
| 4.5 | 41 | 0.3 | 1.3 | 2.6 | 1.6 | 17 | 2 |  |  | H1H8900P (antibody, V domains shown, H1H Fc prefix (human Fc)) VH: QVQLVESGGGVVQPGRSLRLSCVASGFTFSSYGMHWVRQAPGKGLEWVAVISFDGSNKYYADSVKGRFTISRDNSKNTLYLQMNSLRPADTAVYYCAKDRSNYYYFGMDVWGQGTTVTVSS VL: DIVMTQTPLSLPVTPGEPASISCRSSQSLLDSDDGNTYLDWYLQKPGQSPQLLIYTLSYRASGVPDRFSGSGSGTDFTLKISRVEAEDVGVYYCMQRIEFPLTFGGGTKVEIK | binding result [2]: no binding (tested: 60 nM); binding result [3]: no binding (tested: 180 nM) |
| 1.5 | 106 | -2 | -0.8 | -2.3 | -1.3 | 3.6 | 1 | 2.3 | 104 | H2aM8091N (antibody, V domains shown, mouse IgG2 Fc (H2aM prefix); also called H2M8091N) VH: QVQLVQSGADMKKPGASVKVSCKASGYTFTTYGINWVRQAPGQGLEWMGWISAYSGITNYAQSFQGRVTMTTDTSTSTAYMELRSLRSDDTAVYYCARGGYNWATGDYFDYWGQGTLVTVSS VL: DIQMTQSPSTLSASIGDRVTITCRASQSISSWLAWYQQKPGKAPKFLIYKASSLASGVPSRFSGSGSGTEFTLTISSLQPDDFATYYCQQYDSYSPYTFGQGTKVEIK |  |
|  |  | -0.8 | 4.9 | 0.8 | 6.8 |  |  |  |  | H4H8859P (antibody, V domains shown, human IgG4 Fc (H4H prefix)) VH: EVQLVESGGSVVRPGGSLRLSCAASGFTFDVYGMSWVRQAPGKGLEWVSGINWIGGSTGYADSVKGRFTISRDNAKNSLYLQMNSLRAEDTALYYCTREEDYWGQGTLVTVSS VL: DVVMTQSPLSLAVTLGQPASISCRSSQSLVYSDGNTYLNWFQQRPGQSPRRLFYKVSNRDSGVPDRFSGSGSGTDFTLKISRVEAEDVGIYYCMQGIKWPLTFGGGTKVEIK | Kd [3]: 352 nM; koff [3]: 0.0536 s⁻¹; kon [3]: 152000 M⁻¹ s⁻¹; t1/2 [3]: 13.2 s; Kd [5]: 497 nM; koff [5]: 0.0382 s⁻¹; kon [5]: 76800 M⁻¹ s⁻¹; t1/2 [5]: 18 s |
|  |  | -0.6 | 6.9 | -0.8 | 10.6 |  |  |  |  | H4H8870P (antibody, V domains shown, human IgG4 Fc (H4H prefix)) VH: EVQLVESGGGVVRPGGSLRLSCAASGFKFDVYGMSWVRQLPGKGLEWVSGISWTGGSSGYADSVKGRFTISRDNGKKSLYLQMNSLRAEDTALYYCTREEDYWGQGTLVTVSS VL: not shown | Kd [3]: 197 nM; koff [3]: 0.0432 s⁻¹; kon [3]: 219000 M⁻¹ s⁻¹; t1/2 [3]: 16.2 s; Kd [5]: 301 nM; koff [5]: 0.0795 s⁻¹; kon [5]: 264000 M⁻¹ s⁻¹; t1/2 [5]: 6 s |
